The values that follow come from patent US20120058906A1 (published 2012).

For test [1], the target named is T1, rHuman EGF R/Fc Chimera, CF (R&D Systems Cat#344-ER) (human, UniProt P00533 25-645).
T1 construct: Bought reagent; also called epidermal growth factor receptor; Fc part of the bought chimera not given
Description: ECL (MSD multi-spot), antigen spotted on plate; Fab 176.3 nM; blank spot 346.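 Note: blank spot per well as comparator with Hit at signal to blank ratio of 4 or more.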

Test [2] has as its target T2, rHuman ErbB2/Fc Chimera, CF (R&D Systems Cat#1129-ER) (human, UniProt P04626 23-652).
T2 construct: Bought reagent; also called HER2/neu; human epidermal growth factor 2 receptor; Fc part of the bought chimera not given
The description is as above.

The target in test [3] is T3, rHuman P-Cadherin/Fc Chimera, CF (R&D Systems Cat#861-PC) (human, UniProt P22223 108-654).
T3 construct: Bought reagent; also called CDH3; Fc part of the bought chimera not given
Described as above.

Test [4] addresses T4, rHuman CD44/Fc Chimera, CF (R&D Systems Cat#3660-CD) (human, UniProt P16070 21-220).
T4 construct: Bought reagent; Fc part of the bought chimera not given
The test is described as above.

Test [5] concerns the target T5, rHuman Notch-1/Fc Chimera, CF (R&D Systems Cat#3647-TK) (human, UniProt P46531 19-526).
T5 construct: Bought reagent; Fc part of the bought chimera not given
Described as above.

The target in test [6] is T6, rHuman HGF R/c-MET/Fc Chimera, CF (R&D Systems Cat#358-MT/CF) (human, UniProt P08581 25-932).
T6 construct: Bought reagent; also called HGF R/Fc; hepatocyte growth factor receptor; Fc part of the bought chimera not given
The test is described as above.

Test [7] has as its target T7, rHuman IGF-1 sR (IGF-1 sR), CF (R&D Systems Cat#391-GR) (human, UniProt P08069 31-932).
T7 construct: Bought soluble receptor; also called insulin-like growth factor-1 soluble receptor; IGF-R1
Described as above.

The target of test [8] is T8, rHuman Erythropoietin R/Fc Chimera, CF (R&D Systems Cat#963-ER) (human, UniProt P19235 25-250).
T8 construct: Bought reagent; also called EPO R/Fc; Epo R; Fc part of the bought chimera not given
T8 sequence: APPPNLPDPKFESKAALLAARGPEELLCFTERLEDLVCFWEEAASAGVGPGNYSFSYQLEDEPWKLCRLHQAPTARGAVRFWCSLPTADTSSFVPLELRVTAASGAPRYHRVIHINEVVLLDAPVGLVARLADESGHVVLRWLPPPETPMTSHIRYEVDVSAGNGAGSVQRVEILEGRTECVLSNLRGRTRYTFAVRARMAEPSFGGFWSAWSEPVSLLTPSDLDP
The description is as above.

For test [9], the target named is T9, rHuman ErbB2/Fc Chimera, CF (R&D Systems Cat#1129-ER) (human, UniProt P04626 23-652).
T9 construct: Bought Fc chimera; also called HER2/neu; not shown: Fc of the bought chimera
The test is described as follows: ECL (MSD multi-spot), antigen on plate, Fab 0.5 nM.

For test [10], the target named is T10, rHuman CD44/Fc Chimera, CF (R&D Systems Cat#3660-CD) (human, UniProt P16070 21-220).
T10 construct: Bought Fc chimera; not shown: Fc of the bought chimera
The test is described as follows: ECL (MSD multi-spot), antigen on plate, Fab 0.4 nM.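 Note: blank spot per well as comparator with Hit at signal to blank ratio of 4 or more.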

Test [11] deals with T11, Recombinant Human DLL4 (R&D Systems Cat#1506-D4/CF) (human, UniProt Q9NR61 27-524).
T11 construct: Bought recombinant protein; also called delta-like protein 4
Description: ECL (MSD multi-spot), antigen on plate, Fab 0.4 nM.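 Note: blank spot per well as comparator with Hit at signal to blank ratio of 4 or more.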

Test [12] addresses T12, rHuman P-Cadherin/Fc Chimera, CF (R&D Systems Cat#861-PC) (human, UniProt P22223 108-654).
T12 construct: Bought Fc chimera; also called CDH3; not shown: Fc of the bought chimera
The test is described as follows: ECL (MSD multi-spot), antigen on plate, Fab 0.4 nM.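 Note: blank spot per well as comparator with Hit at signal to blank ratio of 4 or more.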

In test [13] the target is T13, rHuman Erythropoietin R/Fc Chimera, CF (R&D Systems Cat#963-ER) (human, UniProt P19235 25-250).
T13 construct: Bought Fc chimera; also called EPO R/Fc; Epo R; not shown: Fc of the bought chimera
T13 sequence: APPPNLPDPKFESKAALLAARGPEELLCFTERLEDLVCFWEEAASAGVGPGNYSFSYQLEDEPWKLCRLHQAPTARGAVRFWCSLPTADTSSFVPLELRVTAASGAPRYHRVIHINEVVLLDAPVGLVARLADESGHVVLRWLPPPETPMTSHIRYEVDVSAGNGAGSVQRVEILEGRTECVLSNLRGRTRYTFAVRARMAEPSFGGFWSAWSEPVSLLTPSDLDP
Description: ECL (MSD multi-spot), antigen on plate, Fab 0.4 nM.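 Note: blank spot per well as comparator with Hit at signal to blank ratio of 4 or more.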

Test [14] addresses T14, rHuman EGF R/Fc Chimera, CF (R&D Systems Cat#344-ER) (human, UniProt P00533 25-645).
T14 construct: Bought Fc chimera; also called ErbB-1; not shown: Fc of the bought chimera
The test is described as follows: ECL (MSD multi-spot), antigen on plate, Fab 0.4 nM.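 Note: blank spot per well as comparator with Hit at signal to blank ratio of 4 or more.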

Test [15] addresses T15, rHuman HGF R/c-MET/Fc Chimera, CF (R&D Systems Cat#358-MT/CF) (human, UniProt P08581 25-932).
T15 construct: Bought Fc chimera; also called HGF R/Fc; not shown: Fc of the bought chimera
Description: ECL (MSD multi-spot), antigen on plate, Fab 0.4 nM.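 Note: blank spot per well as comparator with Hit at signal to blank ratio of 4 or more.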

The target of test [16] is T16, rHuman Notch-1/Fc Chimera, CF (R&D Systems Cat#3647-TK) (human, UniProt P46531 19-526).
T16 construct: Bought Fc chimera; not shown: Fc of the bought chimera
Description: ECL (MSD multi-spot), antigen on plate, Fab 0.4 nM.

Test [17] concerns the target T17, rHuman IGF-1 sR (insulin-like growth factor-1 soluble receptor), CF (R&D Systems Cat#391-GR) (human, UniProt P08069 31-932).
T17 construct: Bought soluble receptor; also called IGF-R1
The test is described as follows: ECL (MSD multi-spot), antigen on plate, Fab 0.4 nM.

The target of test [18] is T9, rHuman ErbB2/Fc Chimera, CF (R&D …). Description: ECL (MSD multi-spot), antigen on plate, Fab 0.4 nM.

B1: Fab VH1-46_IGHD3-10*01_IGHJ4*01 & B3_IGKJ1*01 (Fab, V domains shown)
VH: QVQLVQSGAEVKKPGASVKVSCKASGYTFTSYYMHWVRQAPGQGLEWMGIINPSGGSTSYAQKFQGRVTMTRDTSTSTVYMELSSLRSEDTAVYYCAREYYYGSGSYYNDYFDYWGQGTLVTVSS
VL: not shown
notes: also called IGHV1-46*01
Consider B1, for which the ECL signal in test [1] was 428; in test [2], 448; in test [3], 532; in test [4], 376; in [5], 664; in test [6], 418. For the same molecule, the ECL signal in [7] stood at 393; in [8], 3520.

B2: Fab VH1-46_IGHD6-6*01_IGHJ1*01_S102A_S103P_S104Y_H111Y & L6_IGKJ1*01 (Fab, V domains shown)
VH: QVQLVQSGAEVKKPGASVKVSCKASGYTFTSYYMHWVRQAPGQGLEWMGIINPSGGSTSYAQKFQGRVTMTRDTSTSTVYMELSSLRSEDTAVYYCAREEYAPYSAEYFQYWGQGTLVTVSS
VL: not shown
notes: Fab made in E. coli; The heavy chain also carries CH1 with Flag and His tags from Plasmid A, and the light chain carries kappa CL from Plasmid C
For B2, the ECL signal in [9] was 1720 ECL signal.

B3: Fab VH1-46_IGHD6-6*01_IGHJ1*01_S102A_S103P_S104F & L6_IGKJ1*01_S28P (Fab, V domains shown)
VH: QVQLVQSGAEVKKPGASVKVSCKASGYTFTSYYMHWVRQAPGQGLEWMGIINPSGGSTSYAQKFQGRVTMTRDTSTSTVYMELSSLRSEDTAVYYCAREEYAPFSAEYFQHWGQGTLVTVSS
VL: EIVLTQSPATLSLSPGERATLSCRASQPVSSYLAWYQQKPGQAPRLLIYDASNRATGIPARFSGSGSGTDFTLTISSLEPEDFAVYYCQQRSNWPPWTFGQGTKVEIKR
notes: Fab
In the case of B3, the ECL signal came out at 257 ECL signal in test [10]; 1140 ECL signal in [11]; 191 ECL signal in [12]; 147 ECL signal in [13]; 246 ECL signal in test [14]; 199 ECL signal in test [15]. Also, the ECL signal in test [16] came to 248 ECL signal; in test [17] it was 172 ECL signal; in test [18] it was 275 ECL signal.
